From paper PMC5070119, “Oligomeric interface modulation causes misregulation of purine 5´-nucleotidase in relapsed leukemia” (BMC Biology, 2016)
Changes are numbered by the printed parent chain. Numbers in names are those of the source.

B1: cytosolic purine 5'-nucleotidase (cN-II), full-length wild type (enzyme, human, UniProt P49902 1-561, looked up)
chain: MSTSWSDRLQNAADMPANMDKHALKKYRREAYHRVFVNRSLAMEKIKCFGFDMDYTLAVYKSPEYESLGFELTVERLVSIGYPQELLSFAYDSTFPTRGLVFDTLYGNLLKVDAYGNLLVCAHGFNFIRGPETREQYPNKFIQRDDTERFYILNTLFNLPETYLLACLVDFFTNCPRYTSCETGFKDGDLFMSYRSMFQDVRDAVDWVHYKGSLKEKTVENLEKYVVKDGKLPLLLSRMKEVGKVFLATNSDYKYTDKIMTYLFDFPHGPKPGSSHRPWQSYFDLILVDARKPLFFGEGTVLRQVDTKTGKLKIGTYTGPLQHGIVYSGGSSDTICDLLGAKGKDILYIGDHIFGDILKSKKRQGWRTFLVIPELAQELHVWTDKSSLFEELQSLDIFLAELYKHLDSSSNERPDISSIQRRIKKVTHDMDMCYGMMGSLFRSGSRQTLFASQVMRYADLYAASFINLLYYPFSYLFRAAHVLMPHESTVEHTHVDINEMESPLATRNRTSVDFKDTDYKRHQLTRSISEIKPPNLFPLAPQEITHCHDEDDDEEEEEEEE
notes: cytosolic purine 5'-nucleotidase (cN-II), human, EC 3.1.3.5, 561 residues; full length made by ligating a synthetic C-terminal tail into the truncated construct; Homotetramer; also called wild-type cN-II; NT5C2 product
B2: cytosolic purine 5'-nucleotidase (cN-II) L375F, full-length (enzyme, human, UniProt P49902 1-561, looked up)
chain: B1 chain with L375F
notes: cytosolic purine 5'-nucleotidase (cN-II), human, 561 residues, with the relapsed-ALL somatic mutation L375F; Mutation found in patients with relapsed ALL; Homotetramer; also called L375F mutant
B3: cytosolic purine 5'-nucleotidase (cN-II) R238W, full-length (enzyme, human, UniProt P49902 1-561, looked up)
chain: B1 chain with R238W
notes: cytosolic purine 5'-nucleotidase (cN-II), human, 561 residues, with the relapsed-ALL somatic mutation R238W; Mutation found in patients with relapsed ALL; Homotetramer; also called R238W mutant
B4: cytosolic purine 5'-nucleotidase (cN-II) R367Q, full-length (enzyme, human, UniProt P49902 1-561, looked up)
chain: B1 chain with R367Q
notes: cytosolic purine 5'-nucleotidase (cN-II), human, 561 residues, with the relapsed-ALL somatic mutation R367Q; Mutation found in patients with relapsed ALL; Homotetramer; also called R367Q mutant

Biological target: the molecule itself
Assay: SEC; Superdex 200 10/300 GL, 50 mM sodium phosphate pH 7.4, 100 mM NaCl, 2 mM TCEP; 200 ul of 0.5 mg/ml protein; calibrated with high molecular weight standards

Row | Protein | stoichiometry N
1 | B1 | 4
2 | B2 | 4
3 | B3 | 4
4 | B4 | 4
